Reference: the supplement of paper PMC12042874
± gives the uncertainty stated by the source.

experiment: amyloid nucleation score (Sup35N fusion, yeast selection) (log enrichment); library NNK2; higher = more nucleation; inactive = no reads after selection
Procedure, shortened: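 Peptides of 20 random codons, each fused to Sup35N, were expressed in psi-negative yeast. Cells were induced with 100 μM copper sulfate for 24 hours and grown 7 days at 30°C on medium lacking adenine and uracil, and plasmid inserts before and after selection were Illumina-sequenced. Nucleation scores are DiMSum log enrichments of output over input reads, centred on the mode score of non-aggregating sequences, and sequences under 100 input reads were excluded.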

| Substance | amyloid nucleation score |
| --- | --- |
| FIRVLVWWYVCRLFPHCVAR | 0.554 ± 0.81 |
| FISDVPHERLRLTFIF | -1.41 ± 0.64 |
| FISGYLSETVMVLVDRRLRC | -0.047 ± 1.1 |
| FIVWVV | -0.916 ± 1.1 |
| FIVYKVPFRV | -0.934 ± 0.78 |
| FKGDVHANHFICQMLFAPFR | 8.596 ± 0.057 |
| FLACRSLGKPRMFDRSLRYV | 0.185 ± 0.44 |
| FLARLI | 0.45 ± 0.74 |
| FLDPTVFSYLQVTCDIVDLH | -0.113 ± 1.1 |
| FLDQWDMCP | 0.619 ± 0.81 |
| FLECTSNIDVAMSPWLTLLN | -0.505 ± 1.1 |
| FLFMAIYSILLASIYVAFLS | 2.02 ± 0.2 |
| FLFSFKDPKHMDITCKAVYA | -0.433 ± 0.78 |
| FLGDFRVCLF | inactive |
| FLGLYKRYGVEVGLYMLILV | -0.742 ± 0.24 |
| FLGSVSVLLDKSSSGVNSKR | -0.284 ± 1.1 |
| FLISEDVFHSNSSVWEHISL | -0.173 ± 0.56 |
| FLMSVTYCKGFGRTEECACC | -0.28 ± 0.33 |
| FLMVVVGNVLPLSKCYALWY | -0.007 ± 0.55 |
| FLNMTIRVLAWFVYTI | inactive |
| FLNWCISKLR | -0.735 ± 1 |
| FLRLGLAITLISV | inactive |
| FLRLHE | inactive |
| FLSARHGRGFARGFSPP | inactive |
| FLSDNVISAY | -0.543 ± 0.38 |

| Substance | amyloid nucleation score |
| --- | --- |
| FLTLPFLPAHLKKPHKSLLR | -0.083 ± 0.56 |
| FLVYMIVVV | -0.702 ± 1.1 |
| FLYIRRAVGKWFLVFVTLQQ | 0.135 ± 0.48 |
| FLYRVNAKWVWLRGLSLWQW | 0.252 ± 0.23 |
| FMDWKLYSDPWAKF | -0.639 ± 0.37 |
| FMGGFG | 0.079 ± 0.63 |
| FMGRMLVIHL | 0.277 ± 0.41 |
| FMHNHGPGLDTYAYGTR | -1.13 ± 0.64 |
| FMLRICPGYAKGRCISWHSR | 0.396 ± 0.46 |
| FMLTLQKTLFFCNDRVC | 5.25 ± 0.064 |
| FMTKTPLYVKSYSFWFDLVM | 1.57 ± 0.36 |
| FMVDASLNQRMGINQFVCS | -1.34 ± 0.76 |
| FMYGTDSFGL | -1.08 ± 0.78 |
| FNMHI | 0.8 ± 0.8 |
| FNRPAQNGLAKYWYWIQ | 0.142 ± 0.42 |
| FNRVDDMCGPWCENWLNGQT | -1.23 ± 1.1 |
| FNSWLV | -0.86 ± 1.1 |
| FNTNRNEMCSML | -0.476 ± 1.1 |
| FNTSFNSVFPCSYRRFTGDI | 1.72 ± 0.097 |
| FNTSTAFESTDVKSKVM | -1.22 ± 1.1 |
| FPAWTDGVVLVRVVGASTEE | -0.132 ± 0.34 |
| FPCSVRVTLTYLFMYEPVRP | 0.076 ± 0.2 |
| FPDSSEISHGAVHLLQVCPL | -0.313 ± 0.33 |
| FPNDKLCNFFFDNNQSLARK | -1.31 ± 1 |
| FPSVLSFWKTMSVCGDHPYP | -0.686 ± 0.3 |

| Substance | amyloid nucleation score |
| --- | --- |
| FPVYRI | inactive |
| FQDVDVLGSWPG | 0.387 ± 0.53 |
| FQGCIPFLFVNSWFSYSFVK | -1.36 ± 1.1 |
| FQLPFIVFRRMIVYLKWRWG | -1.05 ± 0.78 |
| FQMVLYRYYTTGISGKLLQD | inactive |
| FQSHWVLERGI | -0.901 ± 1 |
| FRDVPGRECMRLRVYGMNLP | 0.753 ± 0.21 |
| FRFLDNELQNRGRRMYQLGY | -0.465 ± 1 |
| FRKGNIMELFALCCMISYCF | -0.682 ± 0.49 |
| FRLHLKEFDGVPRWCQYTF | inactive |
| FRLIQWWARWIVFFGSTSLH | -0.804 ± 0.45 |
| FRLRVRTVRQNCLYHWGSVE | 0.024 ± 0.56 |
| FRNSNLT | -0.462 ± 0.76 |
| FRTSYRSCCVNTYREVVVYA | -0.501 ± 0.45 |
| FRTYSAVVEWARNKYNLFCG | -0.271 ± 0.28 |
| FRVMSRVWTTEESAFLKLLC | -0.94 ± 0.63 |
| FSCMLNSNFH | inactive |
| FSDNKLFA | 0.715 ± 0.81 |
| FSFKPRTRSAGG | -0.11 ± 0.5 |
| FSFTYQRFSDITCQSTLGLV | -0.705 ± 0.26 |
| FSGDGCRDSA | 0.307 ± 0.56 |
| FSGTF | -1.07 ± 0.76 |
| FSLCSLAEVAKKVTTLRRDG | -0.277 ± 1.1 |
| FSLQQVNFMTVSRGKCSLKL | inactive |
| FSLSCM | inactive |

| Substance | amyloid nucleation score |
| --- | --- |
| FSLSQ | 3.55 ± 0.11 |
| FSMDHDDRSSCKAWHRSEFE | 1 ± 0.2 |
| FSNSTIFDVHAQVLGDFERP | -0.254 ± 1 |
| FSNVLRFSIA | -1.27 ± 0.45 |
| FSPKKFK | -0.532 ± 1 |
| FSPTGSITWNCIRYYLVTRS | -0.279 ± 0.33 |
| FSQYCMALLIVNQEFWACCW | -0.944 ± 0.45 |
| FSSCSDRLGHGLNSLTKHLI | -0.737 ± 0.39 |
| FSSEIRTLGQELVFGVISKA | -0.307 ± 0.76 |
| FSTWSTLDSVACW | inactive |
| FSWFFSNITITMNHCLGVSR | inactive |
| FSYRYIEDWCTNVGDLDVKL | -0.073 ± 0.26 |
| FTFLRRLMFTGFRLAIQNPS | inactive |
| FTFVWNVVQFGTFYGSHLRG | 4.5 ± 0.071 |
| FTFYR | 1.08 ± 0.41 |
| FTSASQFNNTGFCLI | -0.23 ± 0.79 |
| FTSVRMCCILTLGISGSVRA | inactive |
| FTWHLLYTNDCPLVIYMMEL | -0.403 ± 0.74 |
| FVCFPRSVAQRDDSSGVGGN | -0.121 ± 1.1 |
| FVCMIILS | 4.89 ± 0.064 |
| FVDVVPGKSGASET | -0.126 ± 0.49 |
| FVFRWNSVPIRLRVEQGCVF | 0.532 ± 0.47 |
| FVGCYNSRK | 2.4 ± 0.08 |
| FVIFVMNHLWFFWIVWEDRE | -1.26 ± 1.1 |
| FVLLFVYYFILFRLCRIQKV | inactive |

| Substance | amyloid nucleation score |
| --- | --- |
| FVLRCDPVMA | -0.053 ± 1 |
| FVNYSRGRFQVGLVMFRVRP | 0.427 ± 0.74 |
| FVRQNVSFTLGKYYQWVVGM | -0.933 ± 0.24 |
| FVSFSVGWTLCADMNLRMCF | 1.24 ± 0.22 |
| FVSRIGIFLS | -1.28 ± 0.78 |
| FVSRRIVAIPLWLLVSEITS | -0.201 ± 0.38 |
| FVTFFLSSHWVIVLDAYSLN | -0.61 ± 1.1 |
| FVVQCY | 0.998 ± 0.52 |
| FVVWWFLKEMRDSAGKGDEF | -0.49 ± 0.34 |
| FVYVVEGVWEKGIKFFMIFK | -0.913 ± 1.1 |
| FWDAWSDDRRERWRPCPPRT | 1.45 ± 0.38 |
| FWDSIKIHSKSLLSCIDGPW | 2.35 ± 0.066 |
| FWKSWHTPRALAKNSPSAFL | -0.779 ± 0.64 |
| FWLAWLAVRTNHFLAKITD | -0.267 ± 0.28 |
| FWPSQNYRHFLTHRGRRRRS | 0.552 ± 0.66 |
| FWPYRPCKLYVIYLR | inactive |
| FWSCVLSFVYN | 6.1 ± 0.067 |
| FWSGVTFSVLSYMSVSNMVP | -0.979 ± 0.55 |
| FWSSARKDLSATKKGVGFVG | 5.52 ± 0.06 |
| FWVKKLYLGIGSHVWNMGFN | inactive |
| FWYRAYDLIPVLTAGWRYLF | 0.001 ± 0.76 |
| FYAVHLCLTYALGCRLVTSC | -0.932 ± 0.76 |
| FYCIFNFDIFV | 6.286 ± 0.052 |
| FYCMKQLLNNIRWLGYSVCR | -1.28 ± 1.1 |
| FYGAKMSIHSYC | inactive |

| Substance | amyloid nucleation score |
| --- | --- |
| FYGFL | inactive |
| FYGPFV | 0.729 ± 0.23 |
| FYHLLLTFGKIVVVQAAWSM | 0.981 ± 0.51 |
| FYINTYQVSQGFIA | inactive |
| FYKWGVVIFDGNCIEKWDIL | -1.52 ± 0.75 |
| FYLISWKWVKHVGIFA | -0.618 ± 1.1 |
| FYLSFRVECLGRR | 4.782 ± 0.045 |
| FYMNPRRYRGLVIMFFSSPV | -1.27 ± 1.1 |
| FYMYFPNRAYWVGLGLTPML | -0.365 ± 0.61 |
| FYNNPDGDRVDVRSCCYYMW | 7.19 ± 0.073 |
| FYNYRNDVIFVFLAHMPANY | 2.43 ± 0.13 |
| FYQRLMSLTTMYLIQRHSL | -0.038 ± 0.74 |
| FYRRNNSPYSFAVRCGVWFL | inactive |
| FYSAVYMLFIVMWFGY | inactive |
| FYSFRLFMV | 1.88 ± 0.2 |
| FYSTVGSSFWTARQGISLQI | 1.05 ± 0.25 |
| FYSVNCFFFCHSIVILEKLF | 3.33 ± 0.15 |
| FYVLWQLVVYAMVMYWDTYS | inactive |
| FYVYFVCEKIES | -0.076 ± 0.79 |
| GALKSMLQVFQEGLLHDWSI | -0.936 ± 0.31 |
| GALNISLDTLMVSRCYFHSP | 0.945 ± 0.31 |
| GALTQSVLIYRH | 2.12 ± 0.13 |
| GARMSRSSGFSVQYNFSGQG | 4.11 ± 0.093 |
| GASLLFALSLSYKFHQYLVD | -1.44 ± 0.49 |
| GASSPGSAMLTVGILEVVVG | -0.375 ± 0.31 |

| Substance | amyloid nucleation score |
| --- | --- |
| GATLGVADRPGKSAGLPWTD | 0.998 ± 0.15 |
| GAYYSQ | -0.316 ± 0.46 |
| GCDDDDAA | 1.31 ± 0.32 |
| GCDEEDCCCLRFRGC | 6.513 ± 0.031 |
| GCFPSLWWLLPGCFACYSLR | 0.721 ± 0.8 |
| GCKLPYE | -1.39 ± 0.75 |
| GCRTFDPSNGAAIDGAMSFV | inactive |
| GCTRE | 1.36 ± 0.53 |
| GCYTET | 0.729 ± 0.52 |
| GDAIANCIVVWYGHAMPARY | 2.06 ± 0.12 |
| GDCQE | 1.1 ± 0.23 |
| GDDLPWWCISIWFFLSWLEN | inactive |
| GDDWSADVVI | -0.718 ± 0.55 |
| GDGLEMCWVA | -0.226 ± 0.37 |
| GDSIDARGRVQAPQSKEGLR | 1.12 ± 0.42 |
| GEDTFYSISCYVQMLL | 1.49 ± 0.08 |
| GEGGANVMCRVAGIIR | 1.17 ± 0.17 |
| GEQDDVPRFGYTKACEFLFA | inactive |
| GETLSTDYLWQPTHA | 0.877 ± 0.58 |
| GEYISEGDCTCRLQRMVVIE | -0.025 ± 0.76 |
| GFCKEYGEVLIIRLSDSCCD | -0.393 ± 0.56 |
| GFFLSNFSVFYKCIRSVVDT | -1.81 ± 0.62 |
